In patent US20260209316A1:

Legend:
[1] = target: mucin domain-deleted Zaire GP (GPdMuc) (Ebola (Zaire) virus (EBOV)) (UniProt Q05320); assay: BLI competition on Zaire GPdMuc (upper table); competitor 316L
[2] = target: mucin domain-deleted Zaire GP (GPdMuc) (Ebola (Zaire) virus (EBOV)) (UniProt Q05320); assay: BLI competition on Zaire GPdMuc (upper table); competitor 380L
[3] = target: mucin domain-deleted Zaire GP (GPdMuc) (Ebola (Zaire) virus (EBOV)) (UniProt Q05320); assay: BLI competition on Zaire GPdMuc (upper table); competitor 15H10
[4] = target: mucin domain-deleted Zaire GP (GPdMuc) (Ebola (Zaire) virus (EBOV)) (UniProt Q05320); assay: BLI competition on Zaire GPdMuc (upper table); competitor mAb114
[5] = target: mucin domain-deleted Zaire GP (GPdMuc) (Ebola (Zaire) virus (EBOV)) (UniProt Q05320); assay: BLI competition on Zaire GPdMuc (upper table); competitor KZ52 (self)
[6] = target: mucin domain-deleted Zaire GP (GPdMuc) (Ebola (Zaire) virus (EBOV)) (UniProt Q05320); assay: BLI competition on Zaire GPdMuc (upper table); competitor 13C6
[7] = target: mucin domain-deleted Sudan GP (GPdMuc) (Sudan virus (SUDV)) (UniProt Q7T9D9); assay: BLI competition on Sudan GPdMuc; competitor mAb166
[8] = target: mucin domain-deleted Sudan GP (GPdMuc) (Sudan virus (SUDV)) (UniProt Q7T9D9); assay: BLI competition on Sudan GPdMuc (column in both tables); competitor 15H10
[9] = target: mucin domain-deleted Sudan GP (GPdMuc) (Sudan virus (SUDV)) (UniProt Q7T9D9); assay: BLI competition on Sudan GPdMuc; competitor 16F6
[10] = target: mucin domain-deleted Sudan GP (GPdMuc) (Sudan virus (SUDV)) (UniProt Q7T9D9); assay: BLI competition on Sudan GPdMuc (column in both tables); competitor 16F6
[11] = target: mucin domain-deleted Sudan GP (GPdMuc) (Sudan virus (SUDV)) (UniProt Q7T9D9); assay: BLI competition on Sudan GPdMuc (column in both tables); competitor mAb166
[12] = target: mucin domain-deleted Sudan GP (GPdMuc) (Sudan virus (SUDV)) (UniProt Q7T9D9); assay: BLI competition on Sudan GPdMuc (column in both tables); competitor 316L
[13] = target: mucin domain-deleted Sudan GP (GPdMuc) (Sudan virus (SUDV)) (UniProt Q7T9D9); assay: BLI competition on Sudan GPdMuc; competitor 15H10
[14] = target: mucin domain-deleted Sudan GP (GPdMuc) (Sudan virus (SUDV)) (UniProt Q7T9D9); assay: BLI competition on Sudan GPdMuc; competitor 316L

Substance	% inhibition of binding [1]	% inhibition of binding [2]	% inhibition of binding [3]	% inhibition of binding [4]	% inhibition of binding [5]	% inhibition of binding [6]	% inhibition of binding [7]	% inhibition of binding [8]	% inhibition of binding [9]	% inhibition of binding [10]	% inhibition of binding [11]	% inhibition of binding [12]	% inhibition of binding [13]	% inhibition of binding [14]
KZ52 (antibody)	8%	10%	-1%	9%	96%	13%	–	–	–	–	–	–	–	–
HIV-specific antibody VRC01	–	–	–	–	–	–	-43.1%	-333%	31%	-7.53%	-82.7%	20.6%	-296%	29.9%
